The values that follow come from patent US20250114463A1, “LIVER-TARGETED DRUG AND USE THEREOF” (HANMI PHARM. CO., LTD., priority 2021, published 2025).

Holding throughout (test): cell-based or functional assay
One assay concerns the target human GLP-1 receptor (human, UniProt P43220 24-463).
The next assay concerns the target human GCG receptor (human, UniProt P47871 26-477).
The next assay deals with T1, human GIP receptor (human, UniProt P48546 22-466).
T1 sequence (looked up): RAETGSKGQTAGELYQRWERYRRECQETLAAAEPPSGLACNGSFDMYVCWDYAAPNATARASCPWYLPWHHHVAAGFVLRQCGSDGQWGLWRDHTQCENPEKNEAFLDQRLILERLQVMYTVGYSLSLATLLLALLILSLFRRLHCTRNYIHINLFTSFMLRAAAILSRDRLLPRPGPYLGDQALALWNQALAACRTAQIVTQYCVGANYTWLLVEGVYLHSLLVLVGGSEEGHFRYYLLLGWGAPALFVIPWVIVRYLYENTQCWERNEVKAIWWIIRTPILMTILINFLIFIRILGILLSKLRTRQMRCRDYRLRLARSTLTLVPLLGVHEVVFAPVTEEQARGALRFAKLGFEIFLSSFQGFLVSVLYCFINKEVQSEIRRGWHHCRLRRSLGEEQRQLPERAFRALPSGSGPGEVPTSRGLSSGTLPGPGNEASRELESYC

Bridges are numbered along the chain shown (N, C = ends). Where no end group is shown, it is not given here. [ ]: non-standard residue; d: D form. The star is where a group is joined. Acetyl(2-(4-imidazolyl)) = O=C(Cc1c[nH]cn1)*; Aib = CC(C)(N)C(=O)O

human GCG receptor, sequence (P47871 26-477): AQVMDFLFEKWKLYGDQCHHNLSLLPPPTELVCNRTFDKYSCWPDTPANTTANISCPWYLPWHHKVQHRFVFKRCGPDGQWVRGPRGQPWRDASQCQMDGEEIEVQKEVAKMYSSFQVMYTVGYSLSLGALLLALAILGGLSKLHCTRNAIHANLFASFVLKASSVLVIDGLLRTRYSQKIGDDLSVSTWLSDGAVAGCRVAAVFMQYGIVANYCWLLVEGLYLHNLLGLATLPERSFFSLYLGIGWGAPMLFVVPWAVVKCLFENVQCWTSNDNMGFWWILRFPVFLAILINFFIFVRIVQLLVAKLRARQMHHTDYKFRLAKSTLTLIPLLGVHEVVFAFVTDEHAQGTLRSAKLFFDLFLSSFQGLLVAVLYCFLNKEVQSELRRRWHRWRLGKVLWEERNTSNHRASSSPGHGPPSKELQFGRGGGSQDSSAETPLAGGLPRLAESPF

As to [Acetyl(2-(4-imidazolyl))]GQGTFTSDLSKQMDEERAREFIEWLLAQKPSSGAPPPSHG-NH2 [triple agonist of SEQ ID NO: 17], in the assay with human GLP-1 receptor, the “in vitro Activity Compared to Native Peptide (%), vs GLP-1” value was found to be 0.2%. Besides, the “in vitro Activity Compared to Native Peptide (%), vs Glucagon” value with human GCG receptor is under 0.1%. The “in vitro Activity Compared to Native Peptide (%), vs GIP” value with human GIP receptor is under 0.1%.
Y[Aib]QGTFTSDYSKALDEKAAKDFVNWLLDQHPSSGQPPPSC (bridge 16-20; not fully specified (C-terminus); also: ring type not given here) [triple agonist of SEQ ID NO: 102]: in the assay with human GLP-1 receptor, the “in vitro Activity Compared to Native Peptide (%), vs GLP-1” value was 23.3%. In addition, the “in vitro Activity Compared to Native Peptide (%), vs Glucagon” value with human GCG receptor worked out at 29.5%. In addition, the “in vitro Activity Compared to Native Peptide (%), vs GIP” value with human GIP receptor stood at 58%.
For [Acetyl(2-(4-imidazolyl))]GEGTFISDYSIQLDEIAVQDFVEWLLAQKPSSGAPPPSHG-NH2 [triple agonist of SEQ ID NO: 13] the same measures were under 0.1%, under 0.1% and under 0.1%.
As for Y[Aib]QGTFTSDYSKALDEKAAKEFVQWLLDQHPSSGQPPPSC (bridge 16-20; not fully specified (C-terminus); also: ring type not given here) [triple agonist of SEQ ID NO: 100], in the assay with human GLP-1 receptor, the “in vitro Activity Compared to Native Peptide (%), vs GLP-1” value stood at 42.2%. The “in vitro Activity Compared to Native Peptide (%), vs Glucagon” value with human GCG receptor amounted to 12.7%. Moreover, the “in vitro Activity Compared to Native Peptide (%), vs GIP” value with human GIP receptor is 118%.
On to H[Aib]QGTFTSDVSSYLLGQAAKQFIAWLVKGGGPSSGAPPPSC-NH2 [triple agonist of SEQ ID NO: 3], for which the “in vitro Activity Compared to Native Peptide (%), vs GLP-1” value with human GLP-1 receptor was determined as 1.8%. For the same molecule, in the assay with human GCG receptor, the “in vitro Activity Compared to Native Peptide (%), vs Glucagon” value was under 0.1%. In addition, the “in vitro Activity Compared to Native Peptide (%), vs GIP” value in the assay with human GIP receptor was under 0.1%.
Turning to [Acetyl(2-(4-imidazolyl))]GEGTFISDLSKYMDEQAVQLFVEWLMAGGPSSGAPPPSHG-NH2 [triple agonist of SEQ ID NO: 12], the “in vitro Activity Compared to Native Peptide (%), vs GLP-1” value with human GLP-1 receptor was determined as 0.4%. The “in vitro Activity Compared to Native Peptide (%), vs Glucagon” value with human GCG receptor was under 0.1%. Besides, the “in vitro Activity Compared to Native Peptide (%), vs GIP” value in the assay with human GIP receptor was under 0.1%.

B1: triple agonist of SEQ ID NO: 2 (peptide)
peptide: HXQGTFTSDVSSYLDGQAQKEFIAWLVKGC
HELM: PEPTIDE1{H.[Aib].Q.G.T.F.T.S.D.V.S.S.Y.L.D.G.Q.A.Q.K.E.F.I.A.W.L.V.K.G.C.[am]}$$$$V2.0; N-terminus assumed
SMILES: CC[C@H](C)[C@H](NC(=O)[C@H](Cc1ccccc1)NC(=O)[C@H](CCC(=O)O)NC(=O)[C@H](CCCCN)NC(=O)[C@H](CCC(N)=O)NC(=O)[C@H](C)NC(=O)[C@H](CCC(N)=O)NC(=O)CNC(=O)[C@H](CC(=O)O)NC(=O)[C@H](CC(C)C)NC(=O)[C@H](Cc1ccc(O)cc1)NC(=O)[C@H](CO)NC(=O)[C@H](CO)NC(=O)[C@@H](NC(=O)[C@H](CC(=O)O)NC(=O)[C@H](CO)NC(=O)[C@@H](NC(=O)[C@H](Cc1ccccc1)NC(=O)[C@@H](NC(=O)CNC(=O)[C@H](CCC(N)=O)NC(=O)C(C)(C)NC(=O)[C@@H](N)Cc1c[nH]cn1)[C@@H](C)O)[C@@H](C)O)C(C)C)C(=O)N[C@@H](C)C(=O)N[C@@H](Cc1c[nH]c2ccccc12)C(=O)N[C@@H](CC(C)C)C(=O)N[C@H](C(=O)N[C@@H](CCCCN)C(=O)NCC(=O)N[C@@H](CS)C(N)=O)C(C)C
With B1, the “in vitro Activity Compared to Native Peptide (%), vs GLP-1” value with human GLP-1 receptor amounted to 5.9%. For the same molecule, in the assay with human GCG receptor, the “in vitro Activity Compared to Native Peptide (%), vs Glucagon” value was under 0.1%. For the same molecule, in the assay with human GIP receptor, the “in vitro Activity Compared to Native Peptide (%), vs GIP” value was under 0.1%.
Consider Y[Aib]QGTFTSDYSKYLDECRAKEFVQWLKNGGPSSGAPPPS (bridge 16-20; not fully specified (C-terminus)) [triple agonist of SEQ ID NO: 24], for which the “in vitro Activity Compared to Native Peptide (%), vs GLP-1” value with human GLP-1 receptor was 41.2%. Moreover, the “in vitro Activity Compared to Native Peptide (%), vs Glucagon” value in the assay with human GCG receptor stood at 9.3%. Besides, the “in vitro Activity Compared to Native Peptide (%), vs GIP” value with human GIP receptor is under 0.1%.
As to Y[Aib]QGTFTSDYSKCLDEKRAKEFVQWLLDHHPSSGQPPPS-NH2 (bridge 16-20) [triple agonist of SEQ ID NO: 22], in the assay with human GLP-1 receptor, the “in vitro Activity Compared to Native Peptide (%), vs GLP-1” value amounted to 20.1%. For the same molecule, the “in vitro Activity Compared to Native Peptide (%), vs Glucagon” value with human GCG receptor was determined as 140%. The “in vitro Activity Compared to Native Peptide (%), vs GIP” value in the assay with human GIP receptor was 59.7%.
As for [Acetyl(2-(4-imidazolyl))]GQGTFTSDLSIQYDSEHQRDFIEWLKDTGPSSGAPPPSHG-NH2 [triple agonist of SEQ ID NO: 19], the “in vitro Activity Compared to Native Peptide (%), vs GLP-1” value with human GLP-1 receptor was under 0.1%. Further, the “in vitro Activity Compared to Native Peptide (%), vs Glucagon” value with human GCG receptor was under 0.1%. In addition, in the assay with human GIP receptor, the “in vitro Activity Compared to Native Peptide (%), vs GIP” value was under 0.1%.
For the molecule [Acetyl(2-(4-imidazolyl))]GQGTFTSDYSIQLDEIAVRDFVEWLKNGGPSSGAPPPSHG-NH2 [triple agonist of SEQ ID NO: 14], the “in vitro Activity Compared to Native Peptide (%), vs GLP-1” value in the assay with human GLP-1 receptor is 28%. In the assay with human GCG receptor, the “in vitro Activity Compared to Native Peptide (%), vs Glucagon” value is under 0.1%. Besides, the “in vitro Activity Compared to Native Peptide (%), vs GIP” value with human GIP receptor is under 0.1%.
As for [Acetyl(2-(4-imidazolyl))]GQGTFTSDLSKQMDSERAREFIEWLKNTGPSSGAPPPSHG-NH2 [triple agonist of SEQ ID NO: 18], in the assay with human GLP-1 receptor, the “in vitro Activity Compared to Native Peptide (%), vs GLP-1” value was under 0.1%. For the same molecule, in the assay with human GCG receptor, the “in vitro Activity Compared to Native Peptide (%), vs Glucagon” value was under 0.1%. Further, in the assay with human GIP receptor, the “in vitro Activity Compared to Native Peptide (%), vs GIP” value was under 0.1%.
Take [Acetyl(2-(4-imidazolyl))]GEGTFTSDLSKYLDSRRQQLFVQWLKAGGPSSGAPPPSHG-NH2 [triple agonist of SEQ ID NO: 11]: in the assay with human GLP-1 receptor, the “in vitro Activity Compared to Native Peptide (%), vs GLP-1” value amounted to 1.4%. Further, the “in vitro Activity Compared to Native Peptide (%), vs Glucagon” value with human GCG receptor is under 0.1%. Further, the “in vitro Activity Compared to Native Peptide (%), vs GIP” value in the assay with human GIP receptor was under 0.1%.
With Y[Aib]QGTFTSDYSKALDEKAAKDFVNWLLDHHPSSGQPPPSC (bridge 16-20; not fully specified (C-terminus)) [triple agonist of SEQ ID NO: 99], in the assay with human GLP-1 receptor, the “in vitro Activity Compared to Native Peptide (%), vs GLP-1” value came to 20.9%. Further, the “in vitro Activity Compared to Native Peptide (%), vs Glucagon” value in the assay with human GCG receptor came out at 14.9%. For the same molecule, in the assay with human GIP receptor, the “in vitro Activity Compared to Native Peptide (%), vs GIP” value was 57.7%.
Y[Aib]QGTFTSDYSKYLDECRAKEFVQWLLDHHPSSGQPPPS-NH2 (bridge 16-20; also: ring type not given here) [triple agonist of SEQ ID NO: 21]: in the assay with human GLP-1 receptor, the “in vitro Activity Compared to Native Peptide (%), vs GLP-1” value was 17.8%. Besides, the “in vitro Activity Compared to Native Peptide (%), vs Glucagon” value in the assay with human GCG receptor is 267%. Also, in the assay with human GIP receptor, the “in vitro Activity Compared to Native Peptide (%), vs GIP” value is 22.7%.
Consider Y[Aib]QGTFTSDYSKALDEKAAKEFVNWLLDQHPSSGQPPPSC (bridge 16-20; not fully specified (C-terminus); also: ring type not given here) [triple agonist of SEQ ID NO: 101], for which the “in vitro Activity Compared to Native Peptide (%), vs GLP-1” value in the assay with human GLP-1 receptor amounted to 23.2%. Also, the “in vitro Activity Compared to Native Peptide (%), vs Glucagon” value in the assay with human GCG receptor came to 13.9%. Also, the “in vitro Activity Compared to Native Peptide (%), vs GIP” value with human GIP receptor worked out at 40.1%.
For [Acetyl(2-(4-imidazolyl))]GQGTFTSDLSKQMDSEAQQLFIEWLKNGGPSSGAPPPSHG-NH2 [triple agonist of SEQ ID NO: 16] the same measures were 2.1%, under 0.1% and under 0.1%.
For Y[Aib]QGTFTSDYSKYLDECRAKEFVQWLLAQKGKKNDWKHNIT (bridge 16-20; not fully specified (C-terminus)) [triple agonist of SEQ ID NO: 23] the same measures were 4.01%, 9.3% and under 0.1%.
For [Acetyl(2-(4-imidazolyl))]GQGTFTSDLSIQYEEEAQQDFVEWLKDTGPSSGAPPPSHG-NH2 [triple agonist of SEQ ID NO: 20] the same measures were under 0.1%, under 0.1% and under 0.1%.
